Measured values as given in patent US20140018302A1 (SALK INSTITUTE FOR BIOLOGICAL STUDIES INTELLECTUAL PROPERTY …, published 2014).
Positions of bridges follow the written chain, without caps; N, C: chain ends. Non-standard residues stand in square brackets, D forms with d. No end group written: not given here. *: point of attachment. FITC = O=C1OC2(c3ccc(O)cc3Oc3cc(O)ccc32)c2ccc(NC(=S)*)cc21; R8 = C=CCCCCCC[C@@](C)(N)C(=O)O; S5 = C=CCCC[C@](C)(N)C(=O)O

T1: recombinant full-length HDMX (UniProt O15151 1-490)
T1 construct: mature; Full-length protein after TEV cleavage of the tags; also called HDM4
T1 sequence (looked up): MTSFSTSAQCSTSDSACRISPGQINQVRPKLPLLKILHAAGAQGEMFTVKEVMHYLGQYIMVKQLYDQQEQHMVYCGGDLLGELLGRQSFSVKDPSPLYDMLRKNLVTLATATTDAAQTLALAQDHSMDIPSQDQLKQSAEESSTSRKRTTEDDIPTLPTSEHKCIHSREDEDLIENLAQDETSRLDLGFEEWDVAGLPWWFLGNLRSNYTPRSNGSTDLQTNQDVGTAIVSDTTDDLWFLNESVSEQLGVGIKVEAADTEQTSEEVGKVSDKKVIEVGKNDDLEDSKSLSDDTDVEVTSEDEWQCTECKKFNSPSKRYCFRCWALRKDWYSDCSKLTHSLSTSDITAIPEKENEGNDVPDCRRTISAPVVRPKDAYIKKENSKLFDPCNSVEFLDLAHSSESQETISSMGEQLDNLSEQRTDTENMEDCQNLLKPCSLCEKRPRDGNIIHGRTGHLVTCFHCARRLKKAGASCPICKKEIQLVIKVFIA

T2: native HDMX (intracellular, in SJSA-X, JEG-3 and MCF-7 cells) (UniProt O15151 1-490)
T2 construct: mature; Cellular protein in co-immunoprecipitation experiments; In SJSA-X cells it is overexpressed by engineering; also called intracellular HDMX
T2 sequence (looked up): T1 sequence (looked up)

B1: SAH-p53-8F19A (peptide)
peptide: QSQQTA[R8]NLWRLL[S5]QN
modifications: staple 7-14; not fully specified (N-terminus, C-terminus); also: N-terminal FITC in binding assays
notes: also called FITC-SAH-p53-8F19A
B2: FITC-WT-p53 14-29 (peptide)
peptide: {FITC}-LSQETFSDLWKLLPEN
notes: Unstapled wild-type peptide, FITC-labeled in the FP assay; also called wild type p53 peptide

What was measured:
[1] = molecular target: T1, recombinant full-length HDMX; test: fluorescence polarization, 25 nM FITC-peptide
Protocol: Fluorescence polarization was then measured at equilibrium on a SpectraMax M5 microplate reader (Molecular Devices).

[2] = molecular target: T2, native HDMX (intracellular, in SJSA-X, …); test: anti-FITC pull-down from SJSA-X cells, HDMX western
[3] = molecular target: T3, native HDM2 (intracellular, in SJSA-X cells) (UniProt Q00987 1-491, limits assumed); test: anti-FITC pull-down from SJSA-X cells, HDM2 western
T3 construct: mature; Cellular protein in the anti-FITC pull-down; also called intracellular HDM2
T3 sequence (Q00987 whole entry): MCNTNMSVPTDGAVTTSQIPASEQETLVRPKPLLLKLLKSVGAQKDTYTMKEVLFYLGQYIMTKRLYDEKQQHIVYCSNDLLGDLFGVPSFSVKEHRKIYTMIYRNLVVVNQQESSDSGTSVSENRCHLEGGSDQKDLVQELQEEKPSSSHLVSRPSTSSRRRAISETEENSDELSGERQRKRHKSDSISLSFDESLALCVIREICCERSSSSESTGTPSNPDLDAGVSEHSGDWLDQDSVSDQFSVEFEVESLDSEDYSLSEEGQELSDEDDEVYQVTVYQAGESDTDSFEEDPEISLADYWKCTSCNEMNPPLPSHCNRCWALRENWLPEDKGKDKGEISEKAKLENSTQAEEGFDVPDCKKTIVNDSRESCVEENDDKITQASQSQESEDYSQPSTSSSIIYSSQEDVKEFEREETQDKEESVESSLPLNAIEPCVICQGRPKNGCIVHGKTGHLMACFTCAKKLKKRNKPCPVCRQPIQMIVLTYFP

| Binder | binding result [1] | binding result [2] | binding result [3] |
| --- | --- | --- | --- |
| B1 | no binding (tested: 25 pM-100 nM protein) | no binding (tested: 15 uM peptide on cells) | no binding (tested: 15 uM peptide on cells) |
| B2 | no binding (tested: 25 pM-100 nM protein) | – | – |
